Tested on: MS2 coat protein
Experiment: apparent KD of MS2 coat protein; designed switch direction (-1 OFF switch, 1 ON switch): -1; higher = weaker reporter binding
Summary of the method: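 Designed RNA switches were transcribed on Illumina chips by stalled E. coli RNA polymerase and titrated with SNAP-549-labelled MS2 coat protein from 0.7 or 1.5 nM, doubling to 3 µM. Step length ran from 0.8–1.5 h at the lowest concentration to 10–20 min at the highest. The apparent KD is the median over clusters for each design, from curve-fitted normalised cluster fluorescence.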

[1] = input ligand: microRNA oligo, concentration not stated
[2] = Eterna round: R95, input ligand: FMN 200 uM
[3] = Eterna round: R95, input ligand: microRNA oligo, concentration not stated
[4] = Eterna round: R95, input ligand: none

| Sequence | apparent KD of MS2 coat protein (input ligand: FMN 200 uM) [µM] | apparent KD of MS2 coat protein (input ligand: none) [µM] | apparent KD of MS2 coat protein [1] [µM] | apparent KD of MS2 coat protein [2] [µM] | apparent KD of MS2 coat protein [3] [µM] | apparent KD of MS2 coat protein [4] [µM] |
| --- | --- | --- | --- | --- | --- | --- |
| UAACAGUAAGGAUAUCCAGAUCCAGACAUGAGGAUCACCCAUGUCAAAUACCUUUGACACGGAGAAGGUACGAAAA [EX5 A.26] (Eterna round: R97, puzzle: Exclusion 5) | 0.0532 | 0.0519 | – | – | – | – |
| GGAUAAAACUGAGGAUAUACGCACCACUAACGAGUAGAAGGCAGACAUGAGGAUCACCCAUGUGAGUUCUCAAUAAGAAACACG [Prohibition 66 - Jieux - Exclusion NG 1] (Eterna round: R96, puzzle: Exclusion NG 1) | 0.192 | 0.0851 | 0.0889 | – | – | – |
| GCAUUUGUAGGAUAUACAUGAGGAUCACCCAUGUCGAGACGUGCAAGGCUUCCCAACUGUAGAAGGACGCGGCC [Eternabot (L1) Solution 61] (Eterna round: R97, puzzle: Exclusion 3) | 0.0308 | 0.0274 | – | – | – | – |
| GCCCAGAGAGGAUAUACAUGAGGAUCACCCAUGUAGAGCUUGUCUGCAGUGAAAGGAUGUAGAAGGCUCGGGCA [Racearza] (Eterna round: R97, puzzle: Exclusion 3) | 0.0426 | 0.0268 | – | – | – | – |
| AAAAUAAAGAUAGGAUAUGCAGUAUAGCAAGAUCCGGACAUGAGGAUCACCCAUGUACUUCGAAAGCAGAAGGAUCAAACAAAA [Zamale] (Eterna round: R96, puzzle: Exclusion NG 2) | 0.0303 | 0.0266 | 0.03 | – | – | – |
| UGCAGUGAUCCAGAAUGUUACAUGAGGAUCACCCAUGUUAGUAUUGUUUAGUUGUAUAAGUUUGUUGUUCGUUUUAU [JR_STOV1_v2_Sub079] (Eterna round: R97, puzzle: Sensor, turn-off variant 1) | 0.0688 | 0.202 | – | – | – | – |
| AGUACUAACACGAGAGUGUUAGUACAAUAAGCUUGUGAAACAUGAGGAUCACCCAUGUCCUCAUAAGCUCGUCUUAU [salish99_TOv2_r3_029] (puzzle: Sensor v3, turn-off variant 2) | – | – | – | 0.0181 | 0.949 | 0.0172 |
| ACCUGGUGAGGAUAUGUUGGGAAUGAUCCUUUCGGAUUGACACAGAAGGCACAUGAGGAUCACCCAUGUGGGUG [Eternabot (L1) Solution 70] (Eterna round: R97, puzzle: Exclusion 4) | 0.332 | 0.591 | – | – | – | – |
| CAGUACUGAGGAUAUACAUGAGGAUCACCCAUGUGUUCCAGCUAGGUAACUAGCAAAAGUAGAAGGCAGUACUG [salish99_ex3_r3_096x] (puzzle: Exclusion 3) | – | – | – | – | 0.0257 | – |
| AGGUGUAGAGGAUAUCUCUUCUCUCACAUGAGGAUCACCCAUGUCCUAAAGACCAAGGAGAGAGAAGGCUACACCA [Omei Ex5 D6] (Eterna round: R97, puzzle: Exclusion 5) | 0.042 | 0.0418 | – | – | – | – |
| GCACGGAGUGUAGGAUAUUAGUGCGAUUAGCACUGAGAAGGACAUGAGGAUCACCCAUGUUCCUCAAUAAAAUACCUUCCGUGC [Eli exng1 - 040] (Eterna round: R96, puzzle: Exclusion NG 1) | 0.0134 | 0.0137 | 0.01 | – | – | – |
| UACAUGAGGAUCACCCAUGUUUUGUCGUGUAUGGUAUUUAUCUAGGAUAUCAAGUUAUUUAAUUAUGAGAAGGAGAAUAUUAAU [JMF's solution 34] (Eterna round: R96, puzzle: Exclusion NG 3) | 0.0328 | 0.0345 | 0.0266 | – | – | – |
| AUAAUAAAGGAGGAUAUCGUUACGGAAACGUAACGAGAAGGUCUAACAUGAGGAUCACCCAUGUUCCUCAAAUA [Mat - Exclusion 6 - Eli Mod - D53] (puzzle: Exclusion 6) | – | – | – | 0.0499 | 0.0364 | 0.0374 |
| CUGUACAUAGGAUAUAGUUGUUUUUACAUGAGGAUCACCCAUGUUACUCCUCUCUCUCUUCUAGAAGGAUGUUUCU [JR_E5_Sub008] (puzzle: Exclusion 5) | – | – | – | – | 0.0638 | – |
| GGUCAGAUGGUAGGAUAUCCAUAUCGAGUGACCUUUUCAUAACAUGAGGAUCACCCAUGUCGGUGGGAGAAGGGCCGUACGGCG [salish99_ExNG02_R04_017] (Eterna round: R96, puzzle: Exclusion NG 2) | 0.12 | 0.112 | 0.079 | – | – | – |
| UUUUCGUCAGGAUAUUCUACUUAUUACAUGAGGAUCACCCAUGUGUAUGUACAAGGGUGUGAAGAAGGGACUUUUU [LRO-Excl5-10-mod A17d by Omei] (Eterna round: R97, puzzle: Exclusion 5) | 0.305 | 1.07 | – | – | – | – |
| UAUUAGCAAGUAAGAUCCCACAUGAGGAUCACCCAUGUGCUCGUCAUAUCAGGUACGGAGCGGAAACUCACGGUACG [Sensor-V1 #87] (Eterna round: R97, puzzle: Sensor, turn-off variant 1) | 0.209 | 0.351 | – | – | – | – |
| AGGUGUAGGUAAGGAUAUAUCUAAAACCACAUGAGGAUCACCCAUGUAGCGGGUAUCUUCGUGAGAUAGAAGGUGCACGCCGAA [Atbiasori] (Eterna round: R96, puzzle: Exclusion NG 2) | 0.494 | 0.308 | 0.269 | – | – | – |
| UGAACUGUAGGAUAUACAUGAGGAUCACCCAUGUCCCUUCGAUGAGGUCCCACCACGUGUAGAAGGAUGGAAGA [Eternabot (L1) Solution 11] (Eterna round: R97, puzzle: Exclusion 3) | 0.0368 | 0.0422 | – | – | – | – |
| GGCCCUAAGGUCAGAUUCACAAGCUUUUUGCUCGUUUUAACAUGAGGAUCACCCAUGUCUAGUGGAUCUGAUCCUCU [Sensor v3, turn-off variant 2 (MOD of Indiso v.1)] (puzzle: Sensor v3, turn-off variant 2) | – | – | – | 0.0275 | 0.0149 | 0.0312 |
| GAGAAGGUAGGAUAUACGAAUAAAUAGGGUAGGAAGAAGACACAUGAGGAUCACCCAUGUAGAAGGACCAAGAG [Mat - Exclusion 2 - Mod of my Tesla design - D36] (puzzle: Exclusion 2) | – | – | – | 0.0293 | 0.0146 | 0.0178 |
| CCCAUGUCAGGAUAUUAAUUGAGCAGAAAGCCCUGUUCACUUGAGAAGGGACAUGAGGAUCACCCAUGUAAAAC [Belexeedte] (Eterna round: R97, puzzle: Exclusion 4) | 0.0192 | 0.507 | – | – | – | – |
| CUCAGACAUGAGGAUCACCCAUGUCAGGAUAUCGUCUACCUGUGGAAACACAGGUAGACGAGAAGGGAUGUGUU [SS1 Omei 3 v1] (puzzle: Exclusion 1) | – | – | – | – | 0.0435 | – |
| CUGUACUGAGGAUAUACAUGAGGAUCACCCAUGUGCUCCAGCUAGGAAACUAGCAAAAGUAGAAGGCAGUACAG [Mat - Exclusion 3 - Eli Mod - D60] (Eterna round: R97, puzzle: Exclusion 3) | 0.62 | 0.0625 | – | – | – | – |
| GGUUUGGGAGGAUAUGGUUUUAAUAACAUGAGGAUCACCCAUGUAAAUAGAUCCUCAAGGCCAGAAGGCUCAAACC [-26.1, -25.22 kcal, A 33%] (Eterna round: R97, puzzle: Exclusion 5) | 0.212 | 1.98 | – | – | – | – |

Source: the supplement of paper PMC9170038
